According to the RNAGym collection of RNA variant scans (doi:10.1073/pnas.2313332121):

B1: TPR t1 (parent)
chain: GACCAAUCUGCCCUCAGAGCUCGAGAACAUCUUCGGAUGCAGAGGAGGCAGGCUUCGGUGGCGCGAUAGCGCCAACGUCCUCAACCUCCAAUGCAUCCCACCACAUGAUGAUGCCUGAAGAGCCUUGGUUUUUUG

Variants of: B1
Test: polymerase ribozyme fitness, log enrichment relative to wild type (log ratio); higher = more active; in vitro selection for triplet polymerase activity
Method in brief: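 A heterodimeric triplet polymerase ribozyme had each of its subunits mutagenized by PCR into a library, which was transcribed. One round of in vitro selection, done in triplicate, annealed each library with a biotinylated primer, its partner subunit and triplets, then incubated it frozen at −7 °C before gel excision of extended constructs, streptavidin-bead capture and RT-PCR. Fitness is the logarithm of genotype enrichment relative to wild-type enrichment, based on Illumina sequencing of inputs and outputs and inverse-variance-weighted replicate averages. A base-2 logarithm is used, and genotypes were kept only with ≥10 input reads and ≥1 read per output.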

Variant	polymerase ribozyme fitness (log ratio)
GACCAAUCUGCCCUCAGAGCUCGAGAACAUCUUCGGAUGCAGAGGAGGCAGGCUUCGGUGGCGCGAUAGCGGCAACGUCGUCAACCUCCAAUGCAUCCCACCACAUGAUGAUGCCUGAAGAGCCUUGGUCUUUUG [C72G C80G U130C]	-5.89
GCCCAAUCUGCCCUCAGAGAUCGAGAACAUCUUCGGAUGCAGAGGAGGCAGGCUUCGGUGGCGCGAUAGCGCCAACGUUCUCAACCUCCAAUGCAUCCCACCACAUGAUGAUGCCUGAAGAUCCGUGGUUUUUUG [A2C C20A C79U G122U U125G]	-3.43
GACCAAUCUGCCCUCAGAGCUCGAGAACAUCUUCGGAUACAGAGGAGGCAGGCUUCGGUGGUGCGAUAGCGCCAACGUCCUCAACCUCCAAUGCAUCCCACCACAUGAUGAUGCCUGAAGAGCCUUGGUUUUUUG [G39A C62U]	-0.84
GACCAAUCUGCCCUCAGAGCUCGAGACCAUCUUCGGAUGCAGACGAGGCAGGCUUCGGUGGCGCGAUAGCGCGAACGUCCUCAACCUCCAAUGCAUCCCACCACAUGAUGAUGCCUGAAGAGCCUUGGUUUUUUG [A27C G44C C73G]	-5.57
GACCAAUCUGCCCUCAAAGCUCGAGAACAUCUUCGUAUGCAGAGGAGGCAGGCUUCGGUGGCGCGAUAGCGCCAACGUCCUCAACCUCCAAUGCAUCCCACCACAUGAUGAUGCCUGAACAGUGUUGGUUUUUUG [G17A G36U G120C C123U C124G]	-1.43
GACCAAUCUGCCCUCAGAGCUCGAGAACAUCUUCGGAUGCAGAGGAGCCAGGCUUCGGUGGCGCGAUAGCGCCAACGCCCUCAACCUCCAAUGCAUCCCACCACAUGAUGAUGCCUGAACAGCGUUGGUUUUUUG [G48C U78C G120C C124G]	0.298
GACCACAAUGCCCUCAGAGCUCGAGAACCUCUUCGGAUGCAGAGGAGGCAGGCUACGGUGGCGCGAUAGCGCCAACGUCCUCAACCUGCAAUGUAUCCCACCACAUGAUGAUGCCUGAAGAGCCUUGGUUUUUUG [A6C U7A C8A A29C U55A C88G C94U]	-2.74
GACCAAUCUGCCCUCAGAGCUCGAGAACAUCUUCGGAUGCAGAGGAGGCAGGCUUCGGUGGCGCGAUAGCGCCAACGUCCUCAACCUCCAAAGCAUCCCACCACACGAUGAUGACUGAAGAGCCUUGGUUUUUUG [U92A U106C C114A]	-4.09
GACCAAUCUGCCCUCAGAGCUCGAGAACAUCUUCGGAUGCAGAGGAGGCAGGCUUCGGUGGCGCGAUAGCGCCAACGUCCUCAACCUCCAAUGCAUCCCAUCACAUGAUGAUGCCUGAAGAGCCUUGGGCUUUUG [C101U U129G U130C]	0.135
GACCAAUCUGCCCUCAGAGCUCGAGAACUUCUUCGGAUGCAGAGGAGGCAGGCUUCGAUGGCGCGAUAGCGCCAACGUCCUCAACCUCCAAUGCAUCCCACCACAUGAUGAUGCUUGAAGAGCCUUGGUUUUUUG [A29U G58A C115U]	-2.3
GACCAAUCUGCCCUCAGAGCUCGAGAACAUCUUCGGAUGCAUAGGAGGCAGGCUUAGGUGGCGCGAUAGCGCCAACGUCCUCAACCUCCAAUGCAUCCCACCACAUGAUGAUGCCUGAAGAGCCUUGGUUUUUUG [G42U C56A]	-3.39
GACCAAUCUGCCCUCAGAGCUCGAGAACAUCUUCGGAUGCAGAGGAGGCAGGCUUCGGUCGCGCGAUAGCGCCAACGUCCUCAACCUCCAAUGCAUCCCACCACAUAAUGAUGCCUGAAGAGCCUUGGUUUUUUG [G60C G107A]	-5.47
GACCAAUCUGCCCUCAGAGCUCGAGAACAUCUUCGGAUGCAGAGGAGGCAGGCUUCGGUGCCGCGAUAGCGCCAACGUCCUCAACCUCCAAUGCAUCCCACCACAUGAUGGUGCCUGAAGAGCCUUGGUUUUUUG [G61C A111G]	-0.983
GACCAAUCUGCCCUCAGAGCUCGAGAACAUCUUCGGAUGCAGAGGAGGCAGGCUUCGGUGGCGCGAUAGCGCCAACGUCCUCAACCUCCAAUGCAUCCCACCACAUGAUGAUCCCUGAAGAAUCUUGGUUUUUUG [G113C G122A C123U]	-3.7
GACCAAUCUGCUCUCAGAGCUCGAGAACAUCUUAGGAUGCAGAGGAGGCAGGCUUCGGUGGCGCGAUAGCGCCAACGUCCUCAACCUCCAAUGCAUCCCACCACAUGAUGAUGCCUGAAGAGCCUUGGUUUAUUG [C12U C34A U132A]	-1.35
GACCAAUCUGCCCUCAGAGCUCGAGAACAUCUUCGGAUGCAGAGGAGGCAGGCUUCGGUGGCGCGAUAGCGCCAACGUCCUCAACCUCCAAGGCAUCCCACCACAUGUUGAAACCUGAAGAGCCUUGGUUUUUUG [U92G A108U U112A G113A]	-6.92
GAUCAAUCUGCCCUCAGAGCUCGAGAACAUCUUCGGAUGCAGCGGAGGCAGGCUUCGGUGGCGCGAUAGCGCCAACGUCCUCAACCGCCAAUGCAUCCCACCACAUGAUGAUGCCUGAAGAGCCUUGGUUUUUUG [C3U A43C U87G]	-3
GACCAAUCUGCCCUCAGAGCUCGAGAACAUCUUCGGCUGCAGAGGAGGCAGGCUUAGGUGGCGCGAUAGCGCCAACGCCCUCAACCUCCAAUGCAUCCCACCACAUGAUGAUGCCUGAAGAGCCUUGGUCUUUUG [A37C C56A U78C U130C]	-0.27
GACCAAUCGGCCCUCAGAGCUCGAGAACAUCUUCGGAUGCAGAGGAGGCAGGCUUCGGUGGCGCUAUAGCGCCAACGUCCUCAACCUCCAAUGCAUCCCACCACAUGAUGAUGCCUGAAGAGCCUUGGUUUUUUG [U9G G65U]	-5.74
GACCAAUGUGCCCUCAGAGCUCGAGAACAUCUUCGGAUGCGGAGGAGGCAGGCUUCGGUGGCGCGAUAGCACCAACGGCCUCAACCUCCAAUGCAUCCCACCACAUGAUGAUGCCUGAAGAUCCUUGGUUUUUUG [C8G A41G G71A U78G G122U]	-1.62
GACCAAUCUGCACUCAGAGCUCGAGAACAUCUUCGGAUGCAGAGGAGGCAGGCUUCGGUGGCACGAUAGCGCCAACGUCCUCAACCUCGAAUGCAUCCCACCACAUGAUGAUGACUGAAGAGCCUUGGUUUUUUG [C12A G63A C89G C114A]	-6.47
